EC50 of OX40 agonist activity (Jurkat OX40 NF-kB luciferase reporter), fold against iAb IgG, maximal OX40 agonist activity (Jurkat OX40 NF-kB luciferase reporter), fold against iAb IgG and SEC-MALS Molecular Weight (Da) data for two molecules are collected here from patent US20250011450A1.

Assay [1] addresses OX40 expressed on Jurkat cells (NF-kB luciferase reporter line) (UniProt P43489). Kind of assay: cell-based or functional assay.
Assay [2] has as its target anti-OX40 clone 3C8, iAbaff2 IgG. Put plainly: SEC-MALS, self-association. (In general: In gel filtration, larger molecules generally elute earlier.)
Assay [3] shares this target. Kind of assay: SEC-MALS at 4.9 mg/ml, self-association.
The target is the same in assay [4]. Put plainly: SEC-MALS at 1.9 mg/ml, self-association.
For assay [5] the target is unchanged. Put plainly: SEC-MALS at 0.38 mg/ml, self-association.

Sequence of UniProt P43489 (P43489 29-277 limits assumed): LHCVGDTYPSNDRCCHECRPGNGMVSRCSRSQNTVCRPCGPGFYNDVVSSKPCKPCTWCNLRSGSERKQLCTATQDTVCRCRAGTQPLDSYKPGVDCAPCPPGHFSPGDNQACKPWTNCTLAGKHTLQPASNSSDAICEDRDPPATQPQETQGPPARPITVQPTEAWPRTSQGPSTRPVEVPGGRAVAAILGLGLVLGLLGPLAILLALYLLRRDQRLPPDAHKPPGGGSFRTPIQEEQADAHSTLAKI

B1: anti-OX40 clone 3C8, iAbaff1 monomeric Fab (Fab, part only; not given: Light chain, CH1 and tag, not shown: small tags and cut ends)
heavy, part: EVQLVQSGAEVKKPGATVVVLCKASGYAFTNYLIEWVRQAPGQGLEWIGVINPGSGDTYYSEKFKGRVTLFADTSTSQAILILTSLRSEDTAVYYCARDRLDYWGQGTLVTVSS
In assay [1], B1 registered an EC50 of OX40 agonist activity (Jurkat OX40 NF-kB luciferase reporter), fold against iAb IgG of 100 fold and a maximal OX40 agonist activity (Jurkat OX40 NF-kB luciferase reporter), fold against iAb IgG of 2 fold.

B2: anti-OX40 clone 3C8, iAbaff2 IgG (antibody, part only; not given: Light chain, V domains shown, part only)
VH: EVQLVQSGAEVKKPGASVIVSCKASGYAFTNYLIEWVRQAPGQGLEWIGVINPGSGDTYYSEKFKGRVFLFADTSTSTAYLVLSSLRSEDTAVYYCARDRLDYWGQGTLVTVSS
Regarding B2, the SEC-MALS Molecular Weight (Da) was 227000 Da in assay [2], 244000 Da in assay [3], 225000 Da in assay [4] and 204000 Da in assay [5].
